Assay results from PMC9584609, “Determination of oligomeric states of proteins via dual-color colocalization with single molecule localization microscopy” (eLife, 2022).

B1: SLC26A3 tagged with mVenus and PAmCherry (natural protein, human, UniProt P40879 1-764, looked up)
chain: MIEPFGNQYIVARPVYSTNAFEENHKKTGRHHKTFLDHLKVCCSCSPQKAKRIVLSLFPIASWLPAYRLKEWLLSDIVSGISTGIVAVLQGLAFALLVDIPPVYGLYASFFPAIIYLFFGTSRHISVGPFPILSMMVGLAVSGAVSKAVPDRNATTLGLPNNSNNSSLLDDERVRVAAAASVTVLSGIIQLAFGILRIGFVVIYLSESLISGFTTAAAVHVLVSQLKFIFQLTVPSHTDPVSIFKVLYSVFSQIEKTNIADLVTALIVLLVVSIVKEINQRFKDKLPVPIPIEFIMTVIAAGVSYGCDFKNRFKVAVVGDMNPGFQPPITPDVETFQNTVGDCFGIAMVAFAVAFSVASVYSLKYDYPLDGNQELIALGLGNIVCGVFRGFAGSTALSRSAVQESTGGKTQIAGLIGAIIVLIVVLAIGFLLAPLQKSVLAALALGNLKGMLMQFAEIGRLWRKDKYDCLIWIMTFIFTIVLGLGLGLAASVAFQLLTIVFRTQFPKCSTLANIGRTNIYKNKKDYYDMYEPEGVKIFRCPSPIYFANIGFFRRKLIDAVGFSPLRILRKRNKALRKIRKLQKQGLLQVTPKGFICTVDTIKDSDEELDNNQIEVLDQPINTTDLPFHIDWNDDLPLNIEVPKISLHSLILDFSAVSFLDVSSVRGLKSILQEFIRIKVDVYIVGTDDDFIEKLNRYEFFDGEVKSSIFFLTIHDAVLHILMKKDYSTSKFNPSQEKDGKIDFTINTNGGLRNRVYEVPVETKF
notes: SLC26A3, human epithelial chloride-bicarbonate exchanger; The same construct was used for DCC-SMLM and hrCNE; also called epithelial chloride-bicarbonate exchanger SLC26A3; source: HEK293T, transfected; on fixed cells (DCC-SMLM) and in lysate (digitonin or DDM, hrCNE); not shown: mVenus, C-terminal, kept; PAmCherry, C-terminal, kept
B2: prestin (Slc26a5) tagged with mVenus and PAmCherry (natural protein, rat, UniProt Q9EPH0 1-744, looked up)
chain: MDHAEENEIPAETQKYLVERPIFSHPVLQERLHVKDKVTDSIGDKLKQAFTCTPKKVRNIIYMFLPITKWLPAYKFKEYVLGDLVSGISTGVLQLPQGLAFAMLAAVPPVFGLYSSFYPVIMYCFFGTSRHISIGPFAVISLMIGGVAVRLVPDDIVIPGGVNATNGTEARDALRVKVAMSVTLLSGIIQFCLGVCRFGFVAIYLTEPLVRGFTTAAAVHVFTSMLKYLFGVKTKRYSGIFSVVYSTVAVLQNVKNLNVCSLGVGLMVFGLLLGGKEFNERFKEKLPAPIPLEFFAVVMGTGISAGFNLHESYSVDVVGTLPLGLLPPANPDTSLFHLVYVDAIAIAIVGFSVTISMAKTLANKHGYQVDGNQELIALGICNSIGSLFQTFSISCSLSRSLVQEGTGGKTQLAGCLASLMILLVILATGFLFESLPQAVLSAIVIVNLKGMFMQFSDLPFFWRTSKIELTIWLTTFVSSLFLGLDYGLITAVIIALLTVIYRTQSPSYTVLGQLPDTDVYIDIDAYEEVKEIPGIKIFQINAPIYYANSDLYSSALKRKTGVNPAIIMGARRKAMRKYAKEVGNANIANATVVKVDAEVDGENATKPEEEDDEVKFPPIVIKTTFPEELQRFLPQGENIHTVILDFTQVNFMDSVGVKTLAGIVKEYGDVGIYVYLAGCSAQVVNDLTSNRFFENPALKELLFHSIHDAVLGSQVREAMAEQETTVLPPQEDMEPNATPTTPEA
notes: prestin (Slc26a5), rat motor protein of cochlear outer hair cells; The same construct was used for DCC-SMLM and hrCNE; also called SLC26A5/prestin; source: HEK293T, transfected; on fixed cells (DCC-SMLM) and in lysate (digitonin or DDM, hrCNE); not shown: mVenus, C-terminal, kept; PAmCherry, C-terminal, kept

Biological target: the molecule itself
Assay: dual-color colocalization single molecule localization microscopy (DCC-SMLM); HEK293T cells transiently transfected, fixed with cold methanol; each subunit C-terminally tagged with mVenus and PAmCherry; colocalization ratio compared with the calibrated DCC model (coefficient of mismatch M^2) and with reference proteins (two-sample K.-S. test)

Protein	stoichiometry N
B1	2
B2	2
